Data on three molecules can be found in patent publication US20250368742A1.

Broadly, the EC50 is the concentration that produces a half-maximal response. One may read the EC50 (read off the curve) as the concentration needed to bring the measured effect to its halfway point. Low readings indicate greater potency, high ones weaker potency.

Experiment [1] has as its target shed MICA004 polypeptide (human) (UniProt Q29983). Nature of the experiment: capture ELISA (anti-hFc / antibody / shed antigen / biotin-6D4).
Experiment [2] deals with shed MICB005 polypeptide (human) (UniProt Q29980). The description is as above.
Experiment [3] addresses shed MICA002 polypeptide (human) (UniProt Q29983). The experiment is described as above.
Experiment [4] addresses shed MICA008 polypeptide (human) (UniProt Q29983). Described as above.
Experiment [5] concerns the target shed MICA004 polypeptide (human) (UniProt Q29983). Described as above. The source holds these as a separate data set.
The target in experiment [6] is shed MICB005 polypeptide (human) (UniProt Q29980). Described as above. The source holds these as a separate data set.
Experiment [7] deals with shed MICA002 polypeptide (human) (UniProt Q29983). Described as above. The source holds these as a separate data set.
Experiment [8] addresses shed MICA008 polypeptide (human) (UniProt Q29983). The description is as above. The source holds these as a separate data set.
Experiment [9] concerns the target shed MICA004 polypeptide (human) (UniProt Q29983). Described as above. This is another data set of the same source.
Experiment [10] has as its target shed MICB005 polypeptide (human) (UniProt Q29980). The description is as above. This is another data set of the same source.
For experiment [11], the target named is shed MICA002 polypeptide (human) (UniProt Q29983). Described as above. This is another data set of the same source.
For experiment [12], the target named is shed MICA008 polypeptide (human) (UniProt Q29983). The experiment is described as above. This is another data set of the same source.
Experiment [13] addresses shed MICA002 polypeptide (human) (UniProt Q29983). Nature of the experiment: ELISA: antibody titrated on anti-hFc plate, shed MICA002 captured, detection NKG2D-His + anti-His-HRP. (In an ELISA, binding on a coated surface is turned into a signal by an enzyme label.)
Experiment [14] has as its target shed MICA004 polypeptide (human) (UniProt Q29983). Nature of the experiment: ELISA: antibody titrated on anti-hFc plate, shed MICA004 captured, detection NKG2D-His + anti-His-HRP.
For experiment [15] the target is unchanged. Nature of the experiment: capture ELISA (anti-hFc / antibody / shed antigen / biotin-6D4). This is another data set of the same source.
The target of experiment [16] is shed MICB005 polypeptide (human) (UniProt Q29980). The experiment is described as above. This is another data set of the same source.
Experiment [17] concerns the target shed MICA002 polypeptide (human) (UniProt Q29983). The description is as above. This is another data set of the same source.
The target of experiment [18] is shed MICA008 polypeptide (human) (UniProt Q29983). Described as above. The source holds these as a separate data set.
For experiment [19], the target named is human MICB005 on cells (human). Nature of the experiment: flow cytometry on CHO-MICB005 cells; column Control_1w (control of the 1-week experiment). For orientation: A flow cytometer gives signals particle by particle.
Experiment [20] has as its target human MICB005 on cells (human). The experiment can be described thus: flow cytometry on CHO-MICB005 cells; column Control_2w (control of the 2-week experiment).
The target of experiment [21] is human MICB005 on cells (human). The experiment can be described thus: flow cytometry on CHO-MICB005 cells; column HSA_2w (2 weeks in human serum at 37 C).
The target in experiment [22] is human MICB005 on cells (human). The experiment can be described thus: flow cytometry on CHO-MICB005 cells; column HSA_1w (1 week in human serum at 37 C).
Experiment [23] addresses human MICA008 on cells (human). The experiment can be described thus: flow cytometry, HeLa cells (MICA008).
The target of experiment [24] is human MICA004 on cells (human). Nature of the experiment: flow cytometry, CHO cells, panel headed MICA004.

Where two headings read alike, the source gives them in different places.

B1: 1D5 (antibody, human IgG1, kappa, V domains shown)
VH: EIQLQQSGPELVKPGASVKVSCKASGYAFTSQNIYWVKQSHGKSLEWIGYIEPYNVVPMYNPKFKGKATLTVDKSSSSAYIHLNSLTSEDSAIYYCARSGSSNFDYWGQGTTLTVSS
VL: EIILTQSPTTMAASPGEKITITCSASSSISSHYLHWYQQKSGFSPKLLIYRTSNLASGVPARFSGSGSGTSYSLTIGTMEAEDVATYYCQQGSSLPLTFGAGTKVEIKR
Regarding B1, the EC50 is 0.035 µg/mL in experiment [1]; 0.043 µg/mL in experiment [2]; 0.025 µg/mL in [3]; 0.037 µg/mL in experiment [4]; 0.023 µg/mL in experiment [5]; 0.026 µg/mL in [6]. For the same molecule, the EC50 in experiment [7] was determined as 0.019 µg/mL; in experiment [8] it was 0.024 µg/mL; in experiment [9], 0.02 µg/mL; in experiment [10], 0.02 µg/mL; in [11], 0.02 µg/mL; in experiment [12] it was 0.03 µg/mL. The half-maximal effective concentration (EC50) was 0.071 µg/mL in experiment [13]; 0.056 µg/mL in [14]; 0.018 µg/mL in experiment [15]; 0.035 µg/mL in experiment [16]; 0.032 µg/mL in experiment [17]; 0.035 µg/mL in experiment [18]. Further, the maxOD in experiment [1] is 2.8; in [2], 3.83; in experiment [3], 4.5; in experiment [4] it was 1.67. In addition, the Max OD450 amounted to 2.01 in experiment [5]; 1.43 in experiment [6]; 1.93 in [7]; 1.26 in experiment [8]; 2.76 in experiment [9]; 2.81 in [10]. In addition, the Max OD450 in experiment [11] was determined as 3.42; in experiment [12] it was 0.41; in [15], 1.94; in experiment [16], 1.54; in experiment [17], 1.86; in experiment [18] it was 1.39.

B2: h36B3GS (antibody, V domains shown)
VH: QVQLVQSGAEVKKPGASVKVSCKASGYAFTKYNFYWVRQAPGQGLEWIGYIDPYFGGTVYNQKFKGKATLTVDKSTSTAYMELRSLRSDDTAVYYCATTDSYSLFTYWGQGTLVTVSS
VL: DIQMTQSPSSLSASVGDRVTITCRASQDISNYLNWYQQTPGKAVKLLIYYTSRLHSGVPSRFSGSGSGTDYTLTISSLQPEDIATYFCLQGNTLPFTFGQGTKLEIK
In the case of B2, the EC50 in experiment [19] turned out to be 0.295 µg/mL; in [20] it was 0.314 µg/mL; in [21] it was 0.32 µg/mL; in experiment [22] it was 0.26 µg/mL.

B3: h36B3GA (antibody, V domains shown)
VH: QVQLVQSGAEVKKPGASVKVSCKASGYAFTKYNFYWVRQAPGQGLEWIGYIDPYFGGTVYNQKFKGKATLTVDKSTSTAYMELRSLRSDDTAVYYCATTDAYSLFTYWGQGTLVTVSS
VL: DIQMTQSPSSLSASVGDRVTITCRASQDISNYLNWYQQTPGKAVKLLIYYTSRLHSGVPSRFSGSGSGTDYTLTISSLQPEDIATYFCLQGNTLPFTFGQGTKLEIK
As for B3, the results for the EC50 (read off the curve) in experiment [23] and in experiment [24] were 0.4 µg/mL and 0.5 µg/mL, respectively.
